From publication PMC3428855

Target: GST coupled TRPM8 N terminal fragment (1~691) (UniProt Q7Z2W7)
Assay: pull-down

UniProt Q7Z2W7, sequence (Q7Z2W7 1-691): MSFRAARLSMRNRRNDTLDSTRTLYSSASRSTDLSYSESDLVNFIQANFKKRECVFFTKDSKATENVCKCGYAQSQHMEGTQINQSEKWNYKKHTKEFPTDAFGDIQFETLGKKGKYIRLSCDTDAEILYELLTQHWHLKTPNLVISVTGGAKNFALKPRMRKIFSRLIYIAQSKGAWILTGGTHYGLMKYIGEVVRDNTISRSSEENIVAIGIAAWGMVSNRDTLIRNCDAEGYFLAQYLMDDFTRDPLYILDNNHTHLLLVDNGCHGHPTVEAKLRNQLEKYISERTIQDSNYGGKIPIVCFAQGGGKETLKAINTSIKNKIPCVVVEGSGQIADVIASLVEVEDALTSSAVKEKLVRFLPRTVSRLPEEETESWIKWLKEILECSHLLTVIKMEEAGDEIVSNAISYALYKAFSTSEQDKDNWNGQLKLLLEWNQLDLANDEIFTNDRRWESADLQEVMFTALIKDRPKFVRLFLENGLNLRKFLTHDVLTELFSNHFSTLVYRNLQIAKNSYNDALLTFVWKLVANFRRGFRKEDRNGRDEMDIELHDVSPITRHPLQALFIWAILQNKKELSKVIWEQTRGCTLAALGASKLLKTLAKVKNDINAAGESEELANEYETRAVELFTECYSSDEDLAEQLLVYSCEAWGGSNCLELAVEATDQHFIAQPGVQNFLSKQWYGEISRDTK

Gαq (wild type) (from UniProt P50148 1-359) (natural protein)
fold Gαq bound relative to TRPM8 C terminal: 1.28 fold
